Results taken from patent publication US20140237632A1 (UNIVERSITY OF CHICAGO, published 2014).

Assays:
[1] = target: the molecule itself; experiment: self-association; FRET in spectra and nondenaturing SDS-PAGE
[2] = target: the molecule itself; experiment: self-association; nondenaturing SDS-PAGE
Method: FIG. 4. Decreasing the net charge near the N terminus of DsRed reduces aggregation of the protein. (A) Nondenaturing SDS-PAGE of purified DsRed1 (WT), the Round 1 variant (R1), the Round 3 variant (R3), the Round 4 variant (R4), DsRed.T1 (T1), DsRed.T3 (T3) and DsRed.T4 (T4). 1 μg of each purified DsRed variant was mixed with SDS-containing sample buffer on ice and immediately electrophoresed at 4° C. in a 10% poly-acrylamide gel, followed by staining with Coomassie Blue. WT* and T4*: Additional aliquots of DsRed1 and DsRed.T4 were denatured by boiling prior to electrophoresis. MW: broad range prestained protein standard (Bio-Rad). (B) To measure the solubilities of the fluorescent proteins in E. coli, cells carrying pREP4 plus pQE31-based expression vectors encoding DsRed1, DsRed2, the Round 3 variant, the Round 4 variant, or EGFP were grown to an OD₆₀₀ of 0.5, induced with IPTG for 7 h, then lysed with B-PER II and centrifuged for 20 min at 27,000×g. […] The bound antibody was detected using the ECL-Plus kit (Amersham) and a Molecular Dynamics Storm 860 phosphorimager. For each fluorescent protein, a dilution series from the bacterial extract was analyzed, and a sample within the linear range for the detection system was chosen. The percentage of each protein in the supernatant fraction was then quantified. […]

B1: DsRed.T3 (other)
chain: MASSEDVIKEFMRFKVRMEGSVNGHEFEIEGEGEGRPYEGTQTAKLKVTKGGPLPFAWDILSPQFQYGSKVYVKHPADIPDYKKLSFPEGFKWERVMNFEDGGVVTVTQDSSLQDGCFIYKVKFIGVNFPSDGPVMQKKTMGWEPSTERLYPRDGVLKGEIHKALKLKDGGHYLVEFKSIYMAKKPVQLPGYYYVDSKLDITSHNEDYTIVEQYERTEGRHHLFL
notes: Fluorescent protein variant, purified with a hexahistidine tag from E. coli; Entered only for its self-association (tetramer); not shown: N-terminal hexahistidine tag (pQE31) and polylinker upstream of the start codon, carrying P(-4)L
[1]
  binding result: binds

B2: DsRed.T4 (other)
chain: MASSEDVIKEFMRFKVRMEGSVNGHEFEIEGEGEGRPYEGTQTAKLKVTKGGPLPFAWDILSPQFQYGSKVYVKHPADIPDYKKLSFPEGFKWERVMNFEDGGVVTVTQDSSLQDGCFIYKVKFIGVNFPSDGPVMQKKTMGWEPSTERLYPRDGVLKGEIHKALKLKDGGHYLVEFKSIYMAKKPVQLPGYYYVDSKLDITSHNEDYTIVEQYERAEGRHHLFL
notes: as for B1
[1]
  binding result: binds

B3: DsRed Round 4 variant (other)
chain: MASSEDVIKEFMRFKVRMEGSVNGHEFEIEGEGEGRPYEGTQTAKLKVTKGGPLPFAWDILSPQFQYGSKVYVKHPADIPDYKKLSFPEGFKWERVMNFEDGGVVTVTQDSSLQDGCFIYKVKFIGVNFPSDGPVMQKKTMGWEASTERLYPRDGVLKGEIHKALKLKDGGHYLVEFKSIYMAKKPVQLPGYYYVDSKLDITSHNEDYTIVEQYERTEGRHHLFL
notes: Round 3 variant plus R2A, K5E and N6D; also called R4; not shown: N-terminal hexahistidine tag (pQE31) and polylinker upstream of the start codon, carrying P(-4)L
[2]
  binding result: binds
